# Results taken from the supplement of paper PMC10567573.
# B1: GMCL1 (parent)
# chain: FCYCAGSHKRKRSSGSFCYCHPDS
# B2: DVL3 (parent)
# chain: SDVVDWLYHNVEGFTDRREARKYA
# Variants of: B1
# Assay: protein stability index of a GFP-peptide fusion (GPS, HEK-293T) (PSI 1-6); higher = more stable
# Conditions: c terminus: a fixed tail appended
# 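Also: lentivirally expressed fusions sorted by FACS into six bins by GFP to DsRed ratio, PSI derived from sequencing read proportions per bin multiplied by bin number.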
row,Variant,protein stability index
1,FCYCAGSHKRYRSSGSFCYCHPDS,2.95
2,FCYCAGSHKRIRSSGSFCYCHPDS,2.92
3,FCYCAGSHKRARSSGSFCYCHPDS,1.59
4,FCYCAGSHKRTRSSGSFCYCHPDS,2.22
5,FCYCAGSHKRNRSSGSFCYCHPDS,1.93
6,FCYCAGSHKRGRSSGSFCYCHPDS,1.97
7,FCYCAGSHKRVRSSGSFCYCHPDS,1.39
8,FCYCAGSHKRQRSSGSFCYCHPDS,1.33
9,FCYCAGSHKRWRSSGSFCYCHPDS,2.03
10,FCYCAGSHKRERSSGSFCYCHPDS,1.87
11,FCYCAGSHKRFRSSGSFCYCHPDS,1.68
12,FCRCAGSHKRKRSSGSFCYCHPDS,2.3
13,FCKCAGSHKRKRSSGSFCYCHPDS,2.82
14,FCQCAGSHKRKRSSGSFCYCHPDS,2.89
15,FCTCAGSHKRKRSSGSFCYCHPDS,2.99
16,FCNCAGSHKRKRSSGSFCYCHPDS,2.67
17,FCMCAGSHKRKRSSGSFCYCHPDS,2.02
18,FCACAGSHKRKRSSGSFCYCHPDS,2.37
19,FCDCAGSHKRKRSSGSFCYCHPDS,2.2
20,FCWCAGSHKRKRSSGSFCYCHPDS,2.88
21,FCFCAGSHKRKRSSGSFCYCHPDS,2.01
22,FCYAAGSHKRKRSSGSFCYCHPDS,1.29
23,FCYGAGSHKRKRSSGSFCYCHPDS,1.7
24,FCYRAGSHKRKRSSGSFCYCHPDS,1.36

row,Variant,protein stability index
1,FCYWAGSHKRKRSSGSFCYCHPDS,2.56
2,FCYQAGSHKRKRSSGSFCYCHPDS,1.01
3,FCYCAGSWKRKRSSGSFCYCHPDS,2.59
4,FCYCAGSVKRKRSSGSFCYCHPDS,1.89
5,FCYCAGSDKRKRSSGSFCYCHPDS,1.67
6,FCYCAGSYKRKRSSGSFCYCHPDS,2.57
7,FCYCAGSGKRKRSSGSFCYCHPDS,2.88
8,FCYCAGSRKRKRSSGSFCYCHPDS,1.9
9,FCYCAGSLKRKRSSGSFCYCHPDS,1.1
10,FCYCAGSHKRKRSSKSFCYCHPDS,1.72
11,FCYCAGSHKRKRSSDSFCYCHPDS,2.25
12,FCYCAGSHKRKRSSGSFCYCKPDS,3.17
13,FCYCAGSHKRKRSSGSFCYCAPDS,2.41
14,FCYCAGSHKRKRSSGSFCYCMPDS,3.12
15,FCYCAGSHKRKRSSGSFCYCDPDS,2.47
16,FCYCAGSHKRKRSSGSFCYCYPDS,2.43
17,FCYCAGSHKRKRSSGSFCYCTPDS,2.47
18,FCYCAGSHKRKRSSGSFCYCCPDS,1.11
19,FCYCAGSHKRKRSSGSFCYCFPDS,2.51
20,FCYCAGSHKRKRSSGSFCYTHPDS,1.98
21,FCYCAGSHKRKRSSGSFCYYHPDS,1.71
22,FCYCAGSHKRKRSSGSFCYIHPDS,2.06
23,FCYCAGSHKRKRSSGSFCYAHPDS,2.01
24,FCYCAGSHKRKRSSGSFCYSHPDS,1.5

row,Variant,protein stability index
1,FCYCAGSHKRKRSSGSFCYVHPDS,1.91
2,FCYCAGSHKRKRSSGSFCYHHPDS,2
3,FCYCAGSHKRKRSSGSFCYDHPDS,2.73
4,FCYCAGSHKRKRSSGSFCYWHPDS,1.95
5,FCYCAGSHKRKRSSGSFCYGHPDS,1.99
6,FCYCAGSHKRKRSSGSFCYMHPDS,2.3
7,ACYCAGSHKRKRSSGSFCYCHPDS,4.19
8,YCYCAGSHKRKRSSGSFCYCHPDS,1.55
9,WCYCAGSHKRKRSSGSFCYCHPDS,1.91
10,KCYCAGSHKRKRSSGSFCYCHPDS,3.78
11,CCYCAGSHKRKRSSGSFCYCHPDS,4.1
12,TCYCAGSHKRKRSSGSFCYCHPDS,3.34
13,FCYCAGSHRRKRSSGSFCYCHPDS,1.61
14,FCYCAGSHLRKRSSGSFCYCHPDS,1.99
15,FCYCAGSHWRKRSSGSFCYCHPDS,2.62
16,FCYCAGSHQRKRSSGSFCYCHPDS,2.01
17,FCYCAGSHVRKRSSGSFCYCHPDS,2.57
18,FCYCAGSHIRKRSSGSFCYCHPDS,1.94
19,FCYCAGSHGRKRSSGSFCYCHPDS,1.57
20,FCYCAGSHERKRSSGSFCYCHPDS,2.14
21,FCYCAGSHDRKRSSGSFCYCHPDS,1.99
22,FCYCAGSHKRKRSSGSFCTCHPDS,3.6
23,FCYCAGSHKRKRSSGSFCNCHPDS,3.38
24,FCYCAGSHKRKRSSGSFCECHPDS,3.63

row,Variant,protein stability index
1,FCYCAGSHKRKRSSGSFCWCHPDS,1.28
2,FCYCAGSHKRKRSSGSFCCCHPDS,2.86
3,FCYCAGSHKRKRSSGSFCGCHPDS,2.52
4,FCYCAGSHKRKRSSGSFCPCHPDS,3.37
5,FCYCAGSHKRKRSSGSFCFCHPDS,2.31
6,FCYCAGSHKRKRSSGSFCRCHPDS,3.17
7,FCYCAGSHKRKRSSGSFCHCHPDS,2.67
8,FCYCAGSHKRKRSSGSFCACHPDS,3.72
9,FCYCAGSHKRKRSSGSFCICHPDS,2.52
10,FCYCAGSHKEKRSSGSFCYCHPDS,2.5
11,FCYCAGSHKLKRSSGSFCYCHPDS,1.99
12,FCYCAGSHKMKRSSGSFCYCHPDS,1.9
13,FCYCAGSHKPKRSSGSFCYCHPDS,1.9
14,FCYCAGSHKWKRSSGSFCYCHPDS,1.92
15,FCYCAGSHKHKRSSGSFCYCHPDS,1.68
16,FCYCAGSHKIKRSSGSFCYCHPDS,2.32
17,FCYCAGSHKAKRSSGSFCYCHPDS,2.48
18,FCYCCGSHKRKRSSGSFCYCHPDS,1.65
19,FCYCLGSHKRKRSSGSFCYCHPDS,1.57
20,FCYCRGSHKRKRSSGSFCYCHPDS,1.85
21,FCYCQGSHKRKRSSGSFCYCHPDS,1.94
22,FCYCAGSHKRKYSSGSFCYCHPDS,2.56
23,FCYCAGSHKRKVSSGSFCYCHPDS,1.89
24,FCYCAGSHKRKCSSGSFCYCHPDS,1.85

row,Variant,protein stability index
1,FCYCAGSHKRKDSSGSFCYCHPDS,2.06
2,FCYCAGSHKRKESSGSFCYCHPDS,1.15
3,FCYCAGSHKRKKSSGSFCYCHPDS,1.97
4,FCYCAGSHKRKRSSGSFCYCHSDS,2.53
5,FCYCAGSHKRKRSSGSFCYCHRDS,2.1
6,FCYCAGSHKRKRSSGSFCYCHMDS,1.85
7,FCYCAGSHKRKRSSGSFCYCHCDS,2.12
8,FCYCAGSHKRKRSSGSFCYCHWDS,2.27
9,FCYCAGSHKRKRPSGSFCYCHPDS,2.67
10,FCYCAGSHKRKRMSGSFCYCHPDS,2.04
11,FCYCAGSHKRKRDSGSFCYCHPDS,2.74
12,FCYCAGSHKRKRTSGSFCYCHPDS,2.11
13,FCYCAGSHKRKRNSGSFCYCHPDS,1.64
14,FCYCAGSHKRKRFSGSFCYCHPDS,2.24
15,FCYCAGSHKRKRQSGSFCYCHPDS,1.7
16,FCYCAGSHKRKRSSGSQCYCHPDS,2.61
17,FCYCAGSHKRKRSSGSSCYCHPDS,1.78
18,FCYCAGSHKRKRSSGSYCYCHPDS,2.25
19,FCYCAGSHKRKRSSGSKCYCHPDS,2.17
20,FCYCAGSHKRKRSSGSACYCHPDS,2.11
21,FCYCAGSHKRKRSSGSVCYCHPDS,2.04
22,FCYCAGSHKRKRSSGSICYCHPDS,2.05
23,FCYCAGSHKRKRSSGSFCYCHPCS,1.28
24,FCYCAGSHKRKRSSGSFCYCHPKS,2.42

row,Variant,protein stability index
1,FCYCAGSHKRKRSSGSFCYCHPPS,2.86
2,FCYCAGSHKRKRSSGSFCYCHPVS,1.44
3,FCYCAGSHKRKRSSGSFCYCHPLS,1.98
4,FCYCAGSHKRKRSSGSFCYCHPHS,1.88
5,FCYCAGSHKRKRSSGSFCYCHPFS,2.06
6,FCYCAGSHKRKRSSGSFCYCHPRS,1.99
7,FCYCAGSHKRKRSSGSFCYCHPWS,2.16
8,FCYCAGSHKRKRSSGSFCYCHPTS,3.04
9,FCYCAHSHKRKRSSGSFCYCHPDS,1.94
10,FCYCAPSHKRKRSSGSFCYCHPDS,1.34
11,FCYCATSHKRKRSSGSFCYCHPDS,1.55
12,FCYCANSHKRKRSSGSFCYCHPDS,2.92
13,FCYCAGSHKRKRSSGHFCYCHPDS,2
14,FCYCAGSHKRKRSSGPFCYCHPDS,1.36
15,FCYCAGSHKRKRSSGLFCYCHPDS,1.26
16,FCYCAGSHKRKRSSGAFCYCHPDS,2.33
17,FCYCAGSHKRKRSSGNFCYCHPDS,1.36
18,FCYCAGSHKRKRSSGRFCYCHPDS,1.59
19,FCYCAGSHKRKRSSGEFCYCHPDS,3.31
20,FCYCAGSHKRKRSSGSFCYCHPDG,2.46
21,FCYCAGSHKRKRSSGSFCYCHPDN,2.12
22,FCYCAGSHKRKRSSGSFCYCHPDD,1.87
23,FCYCAGSHKRKRSSGSFCYCHPDY,1.84
24,FCYCAGSHKRKRSSGSFCYCHPDK,2.44

row,Variant,protein stability index
1,FCYCAGSHKRKRSSGSFCYCHPDM,1.78
2,FCYCAGSHKRKRSSGSFCYCHPDR,2.28
3,FCYCAGSHKRKRSSGSFCYCHPDA,1.94
4,FCYCAGSHKRKRSSGSFCYCHPDI,2.03
5,FCYCAGSHKRKRSSGSFPYCHPDS,2.1
6,FCYCAGSHKRKRSSGSFNYCHPDS,2.2
7,FCYCAGSHKRKRSSGSFEYCHPDS,2.74
8,FCYCAGSHKRKRSSGSFRYCHPDS,1.63
9,FCYCAGSHKRKRSSGSFWYCHPDS,2.99
10,FCYCAGSHKRKRSSGSFKYCHPDS,1.95
11,FCYCAGSHKRKRSSGSFMYCHPDS,2.11
12,FNYCAGSHKRKRSSGSFCYCHPDS,1.27
13,FWYCAGSHKRKRSSGSFCYCHPDS,1.79
14,FTYCAGSHKRKRSSGSFCYCHPDS,2.22
15,FDYCAGSHKRKRSSGSFCYCHPDS,2.79
16,FQYCAGSHKRKRSSGSFCYCHPDS,3.31
17,FFYCAGSHKRKRSSGSFCYCHPDS,2.25
18,FEYCAGSHKRKRSSGSFCYCHPDS,2.05
19,FYYCAGSHKRKRSSGSFCYCHPDS,2.03
20,FHYCAGSHKRKRSSGSFCYCHPDS,1.81
21,FAYCAGSHKRKRSSGSFCYCHPDS,2.76
22,FLYCAGSHKRKRSSGSFCYCHPDS,1.79
23,FMYCAGSHKRKRSSGSFCYCHPDS,1.51
24,FCYCAGSHKRKRSMGSFCYCHPDS,2.04

row,Variant,protein stability index
1,FCYCAGSHKRKRSRGSFCYCHPDS,2.02
2,FCYCAGSHKRKRSQGSFCYCHPDS,1.89
3,FCYCAGSHKRKRSEGSFCYCHPDS,1.87
4,FCYCAGSHKRKRSKGSFCYCHPDS,1.61
5,FCYCAGSHKRKRSLGSFCYCHPDS,2.6
6,FCYCAGKHKRKRSSGSFCYCHPDS,2.29
7,FCYCAGWHKRKRSSGSFCYCHPDS,1.9
8,FCYCAGYHKRKRSSGSFCYCHPDS,1.59
9,FCYCAGCHKRKRSSGSFCYCHPDS,2.1
10,FCYCAGTHKRKRSSGSFCYCHPDS,2.98
11,FCYCAGRHKRKRSSGSFCYCHPDS,2.34
12,FCYCAGDHKRKRSSGSFCYCHPDS,1.55
13,FCYCAGNHKRKRSSGSFCYCHPDS,2.16
14,FCYCAGLHKRKRSSGSFCYCHPDS,1.89
15,FCYCAGFHKRKRSSGSFCYCHPDS,2.54
16,FCYCAGHHKRKRSSGSFCYCHPDS,1.59
17,FCYCAGQHKRKRSSGSFCYCHPDS,1.77

# Variants of: B2
# Assay: as above
# Conditions: c terminus: a fixed tail appended
row,Variant,protein stability index
1,EDVVDWLYHNVEGFTDRREARKYA,3.76
2,DDVVDWLYHNVEGFTDRREARKYA,3.92
3,CDVVDWLYHNVEGFTDRREARKYA,2.71
